No end group written: not given here. *: point of attachment. Biotin = O=C1N[C@H]2[C@H](CS[C@H]2CCCCC(=O)*)N1
Key:
[1] = target: T1, epitope mapping peptide #7 (human); assay: labelled AK1967 on biotinylated peptide captured on avidin plate, chemiluminescence
T1 peptide: Biotin-AFNFDQETVINPET
Procedure: (§1) The plates were filled with 200 μl of labelled and diluted detection antibody (tracer) and incubated for 4 h at room temperature. Unbound tracer was removed by washing 4 times with 350 μl washing solution (20 mM PBS, pH 7.4, 0.1% Triton X-100). Well-bound chemiluminescence was measured by using the Centro LB 960 luminometer (Berthold Technologies GmbH & Co. KG).

[2] = target: T2, epitope mapping peptide #8 (human); assay: as above
T2 peptide: Biotin-AFNFDQETVINPE
Procedure: as §1

[3] = target: T3, epitope mapping peptide #9 (human); assay: as above
T3 peptide: Biotin-AFNFDQETVINP
Procedure: as §1

[4] = target: T4, epitope mapping peptide #10 (human); assay: as above
T4 construct: also called bio-AFNFDQETVIN
T4 peptide: Biotin-AFNFDQETVIN
Procedure: as §1

[5] = target: T5, epitope mapping peptide #11 (human, not fully specified (C-terminus)); assay: as above
T5 peptide: ETGEQIQSWYK(Biotin)
Procedure: as §1

[6] = target: T6, epitope mapping peptide #12 (human, not fully specified (C-terminus)); assay: as above
T6 peptide: PETGEQIQSWYK(Biotin)
Procedure: as §1

[7] = target: T7, epitope mapping peptide #13 (human, not fully specified (C-terminus)); assay: as above
T7 peptide: NPETGEQIQSWYK(Biotin)
Procedure: as §1

[8] = target: T8, epitope mapping peptide #1 (human, biotinylated at the N- or C-terminus (which end is in the drawing only)); assay: labelled AK1967 on biotinylated peptide #1 captured on avidin plate, chemiluminescence
T8 peptide: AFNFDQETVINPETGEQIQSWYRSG
Procedure: as §1

[9] = target: T9, epitope mapping peptide #2 (human); assay: labelled AK1967 on biotinylated peptide #2 captured on avidin plate, chemiluminescence
T9 peptide: Biotin-AFNFDQETVINPETGEQIQ
Procedure: as §1

[10] = target: T10, epitope mapping peptide #3 (human); assay: labelled AK1967 on biotinylated peptide #3 captured on avidin plate, chemiluminescence
T10 peptide: Biotin-AFNFDQETVINPETGEQI
Procedure: as §1

[11] = target: T11, epitope mapping peptide #4 (human); assay: labelled AK1967 on biotinylated peptide #4 captured on avidin plate, chemiluminescence
T11 peptide: Biotin-AFNFDQETVINPETGEQ
Procedure: as §1

[12] = target: T12, epitope mapping peptide #5 (human); assay: labelled AK1967 on biotinylated peptide #5 captured on avidin plate, chemiluminescence
T12 peptide: Biotin-AFNFDQETVINPETGE
Procedure: as §1

[13] = target: T13, epitope mapping peptide #6 (human); assay: labelled AK1967 on biotinylated peptide #6 captured on avidin plate, chemiluminescence
T13 peptide: Biotin-AFNFDQETVINPETG
Procedure: as §1

[14] = target: T14, epitope mapping peptide #14 (human, not fully specified (C-terminus)); assay: labelled AK1967 on biotinylated peptide #14 captured on avidin plate, chemiluminescence
T14 peptide: INPETGEQIQSWYK(Biotin)
Procedure: as §1

[15] = target: T15, epitope mapping peptide #15 (human, not fully specified (C-terminus)); assay: labelled AK1967 on biotinylated peptide #15 captured on avidin plate, chemiluminescence
T15 peptide: VINPETGEQIQSWYK(Biotin)
Procedure: as §1

[16] = target: T16, epitope mapping peptide #16 (human, not fully specified (C-terminus)); assay: labelled AK1967 on biotinylated peptide #16 captured on avidin plate, chemiluminescence
T16 peptide: TVINPETGEQIQSWYK(Biotin)
Procedure: as §1

[17] = target: T17, epitope mapping peptide #17 (human, not fully specified (C-terminus)); assay: labelled AK1967 on biotinylated peptide #17 captured on avidin plate, chemiluminescence
T17 peptide: ETVINPETGEQIQSWYK(Biotin)
Procedure: as §1

binding result [1]: no binding
binding result [2]: no binding
binding result [3]: no binding
binding result [4]: no binding
binding result [5]: no binding
binding result [6]: no binding
binding result [7]: no binding
binding result [8]: binds
binding result [9]: binds
binding result [10]: binds
binding result [11]: binds
binding result [12]: binds
binding result [13]: binds
binding result [14]: binds
binding result [15]: binds
binding result [16]: binds
binding result [17]: binds
B1: monoclonal anti-DPP3 antibody AK1967 (clone 1967 of SEQ ID No.: 2) (antibody, V domains shown)
VH: QVTLKESGPGILQPSQTLSLTCSFSGFSLSTSGMSVGWIRQPSGKGLEWLAHIWWNDNKSYNPALKSRLTISRDTSNNQVFLKIASVVTADTGTYFCARNYSYDYWGQGTTLTVSS
VL: DVVVTQTPLSLSVSLGDPASISCRSSRSLVHSIGSTYLHWYLQKPGQSPKLLIYKVSNRFSGVPDRFSGSGSGTDFTLKISRVEAEDLGVYFCSQSTHVPWTFGGGTKLEIK
notes: Murine monoclonal; A human IgG1 kappa backbone was used for chimerization and humanization; The Octet run captured 'AK1967' on anti-human Fc biosensors, so the format in that run is uncertain; also called Procizumab; PCZ

Reference: patent publication US20230213519A1 (4TEEN4 PHARMACEUTICALS, published 2023)
